Here are results for five substances from patent US5580747A, “Non-radioactive enzyme assay” (Promega Corporation, priority 1994, dated 1996).

No end group written: not given here.

Holding throughout (assay type): biochemical
In experiment [1] the test system is Brevibacterium albidum culture supernate. The experiment can be described thus: Assays of proteases in crude media samples. The note with it: 90 minutes at 37° C. Here is the method:
(§1) Samples of culture supernate from stationary phase cultures of Thermus aquaticus (T. aquaticus) and Brevibacterium albidum (B. albidum) were made by centrifugation of a stationary phase culture at 12,000×g for 2 minutes and transfer of the supernate to fresh tubes. Diluted stocks of Promega Peptides 3 (SEQ ID NO:3), 5 (SEQ ID NO:5) and 6 (SEQ ID NO:6) were made by dilution of the original stocks of these peptides with an equal volume of 50 mM ammonium bicarbonate, pH 7.8. In three independent tubes per peptide, 10 μL of these diluted stocks were incubated with either 10 μL water, 10 μL Thermus supernate, or 10 μL Brevibacterium supernate. The incubations were performed for 90 minutes at 37° C. The samples were then loaded in a 0.9% agarose gel made with 20 mM Tris-Cl pH 8.0. The gel was then electrophoresed at 120 V for 30 minutes, and was photographed under UV light on a transilluminator as described above.
(§2) Reference is made to FIG. 15, which is a photograph of the agarose gel used to analyze the peptide species produced in the digestion of Promega Peptides 3 (SEQ ID NO:3), 5 (SEQ ID NO:5), and 6 (SEQ ID NO:6) by supernates of cultures of T. aquaticus and B, albidum. The gel was photographed under UV light as described in Example 1 and the gel is oriented such that the end of the gel which was oriented towards the negative electrode is towards the top of the photograph.

Experiment [2] relates to Thermus aquaticus culture supernate. The experiment can be described thus: Assays of proteases in crude media samples. Conditions: 90 minutes at 37° C. Here is the method:
as §1, §2

The target in experiment [3] is cAMP-dependent protein kinase (Homo sapiens, UniProt P17612). The experiment can be described thus: Radioactive kinase assay of peptide substrates (32P incorporation, P81 filter). The protocol: Radioactive kinase assays were carried out as described in Walton et al., as modified and described here. Five μl Promega Peptide 1 (SEQ ID NO:1) were added to a reaction mixture containing 20mM Tris HCl (pH 7.4), 10 mM MgCl2, 4 micrograms (μg) of cAMP-dependent protein kinase (both catalytic and regulatory subunits), in the presence or absence of 2 micromolar (μM) cAMP, in a volume of 50 μl.
The reaction began with the addition of 10 μl of solution containing 0.15 mM [γ32 P] ATP (about 0.05 Ci/mmol) and 10 mM MgCl2. After a two minute incubation, the reaction was terminated by the addition of 30 μl of H3 PO4 to a final concentration of 0.5%. To measure incorporation of radiolabelled phosphate into the peptide substrate, half the reaction mixture was spotted onto a Whatmann P81 filter. The filters were washed four times in a solution containing 0.5% H3 PO4. Each wash lasted at least five minutes. After washing, the radioactivity present on the filters was measured in a scintillation counter.

Experiment [4] has as its target T1, Endoprotease Lys C (Lysobacter enzymogenes, UniProt Q7M135).
T1 construct: purchased Promega Corp., Madison, Wis
The experiment can be described thus: Assay of pure proteases using modified peptides, agarose gel. Conditions: 90 minutes at 37° C., 0.1 to 0.001 μg protease. Here is the method:
The proteases Modified Trypsin [sequencing grade] (Promega Corp., Madison, Wis.) and Endoprotease Lys C [sequencing grade] were dissolved in A buffer (50 mM ammonium bicarbonate, pH 7.8). These stocks were diluted with A buffer to produce stocks containing […] protease per 4 μl of liquid. Independent incubations of 4 μl of each of the different protease concentrations were performed with Promega Peptides 5 (SEQ ID NO:5), 6 (SEQ ID NO:6), 7 (SEQ ID NO:7) (5 μl of the stocks described above) in a 20 μl reaction mixture containing: 5 μl peptide; 4 μl protease; and 11 μl A buffer.
After 90 minutes at 37° C., the samples were loaded into a 0.8% agarose gel made in 20 mM Tris, pH 8.0. The samples were electrophoresed at 150 V. When the control peptide sample had migrated about 0.5 inch from the loading well, the gels were photographed on a transilluminator as described above.
Reference is made to FIG. 13, which is a photograph of the agarose gel used to analyze the peptide species produced in the digestion of Promega Peptide 6 (SEQ ID NO:6) by modified trypsin and Endoprotease Lys C. The gel was photographed under UV light as described in Example 1 and the gel is oriented such that the end of the gel which was oriented towards the negative electrode is towards the top of the photograph. The lanes are numbered from left to right. […]

For experiment [5], the target named is catalytic subunit of the cAMP-dependent protein kinase (Homo sapiens, UniProt P17612). The experiment can be described thus: Quantitation of cAMP-dependent protein kinase activity using microtiter plate reader. The note with it: for A570: phosphorylated peptide band. Here is the method: Eight microliters of Promega Peptide 7 (SEQ ID NO:7) was phosphorylated by the catalytic subunit of the cAMP-dependent protein kinase. The amount of kinase used in the assay varied from 4.5 μg to 0.9 ng, diluted from a stock solution of 2.25 mg/ml. The reactions took place in a volume of 24 μl for 30 minutes at room temperature, and were stopped by heating the solutions at 95° C. for five minutes.
After heating, glycerol was added to the solutions to a final concentration of 4%. The solutions were then loaded on a 0.8% agarose gel, which was run at 100 V until the phosphorylated and non-phosphorylated bands had separated and migrated from the wells.
The agarose containing the phosphorylated peptide was excised from the gel with a razor blade and placed into Eppendorph tubes. The agarose was melted, and 145 μl agarose solution were diluted in urea and acetic acid to a final concentration of 2M and 1M, respectively, in a final volume of 250 μl.
The solutions were placed in the wells of a microtiter plate and allowed to cool. After the agarose re-solidified, the absorbance of the wells at 570 nanometers (nm) was read.

The target in experiment [6] is catalytic subunit of cAMP-dependent protein kinase (Homo sapiens, UniProt P17612). The experiment can be described thus: Quantitation of cAMP-dependent protein kinase activity using a spectrophotometer. The note with it: for A570: phosphorylated peptide band. The protocol: Three microliters of Promega Peptide 7 (SEQ ID NO:7) were phosphorylated by varying amounts of cAMP-dependent protein kinase. The reactions took place in a volume of 20 μl in a solution containing 3 mM ATP, 20 mM HEPES buffer (pH 7.4), and between 50 ng and 1 μg catalytic subunit of cAMP-dependent protein kinase. The mixture was incubated for 30 minutes at room temperature, and the reactions were stopped by heating the mixture at 95° C. for five minutes.
At this time, the phosphorylated and non-phosphorylated species had separated and could be detected by ultraviolet light. The phosphorylated peptide was then excised from the gel with a razor blade, and the agarose was melted by heating at 95° C. for 2 minutes. Two hundred microliters of the melted agarose were then diluted to 400 μl in a solution containing 2M urea and 1M acetic acid. The absorbance of the solution at 570 nm was then determined in a Milton-Roy Spectronic 1201 spectrophotometer.

In experiment [7] the test system is protein kinase C. The experiment can be described thus: Detection of small amounts of protein kinase C, agarose gel. The note with it: 30 minutes at room temperature, UV light. The protocol:
Fifteen microliters of Promega Peptide 5 (SEQ ID NO:5) were incubated in protein kinase C reaction buffer (20 mM HEPES (pH 7.4), 1.3 mM CaCl2, 1 mM DTT, 10 mM MgCl2, 200 μg/mL phosphatidyl serine, 15 mM ATP), and 1 μg Protein Kinase C for 2 hours at room temperature in a final volume of 40 μl. The reaction was stopped by heating the reaction solution to 95° C. for ten minutes.
Five microliters of Promega Peptide 5 (SEQ ID NO:5) and 6 (SEQ ID NO:6) or 2.5 μl of Promega Peptide 4 (SEQ ID NO:4) were incubated with a solution containing 18 μl protein kinase C reaction buffer (described in Example 13) and decreasing amounts of protein kinase C, containing between 60 ng and 60 picograms (pg), for 30 minutes at room temperature. Reactions were stopped by heating the reaction mixtures to 95° C. for 10 minutes.
Referring to FIG. 11, the detection of phosphorylated peptide was observed under UV light, and detection limits noted. Six hundred picograms of protein kinase C could be detected by Promega Peptide 4 (SEQ ID NO:4), 3ng by Promega Protein 5 (SEQ ID NO:5), and 3 ng by Promega Protein 6 (SEQ ID NO:6).

Setting [8] is: 8 μl peptide, 30 minutes at room temperature.

T1 sequence (Q7M135 whole entry): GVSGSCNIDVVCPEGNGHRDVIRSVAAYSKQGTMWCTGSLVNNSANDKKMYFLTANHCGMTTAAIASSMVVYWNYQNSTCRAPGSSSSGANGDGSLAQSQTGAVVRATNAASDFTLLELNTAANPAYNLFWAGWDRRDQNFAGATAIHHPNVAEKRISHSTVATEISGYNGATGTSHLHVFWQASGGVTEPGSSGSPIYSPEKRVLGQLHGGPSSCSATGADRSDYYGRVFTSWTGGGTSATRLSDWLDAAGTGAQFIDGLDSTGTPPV

As for “Sulforhodamine 101 Derivative of V^6 A^5 Kemptide ({sulforhodamine 101}-LRRASVA) [Promega Peptide 3]”, in experiment [1], the “proteolysis by B. albidum supernate” value is reported as “novel peptide species made in small amount”. Moreover, in experiment [2], the “proteolysis by T. aquaticus supernate” value is “proteolytic cleavage of the peptide had occurred”.

On to LRRASLG [Kemptide], for which the “CPM (+cAMP)” value in experiment [3] (2 μM cAMP, 4 μg cAMP-dependent protein kinase, [γ32P]ATP, two minute incubation) is on record as 471,840 CPM. In experiment [3] (CPM +cAMP relative to no cAMP), the Stimulation is on record as 82. The “CPM (no cAMP)” value in experiment [3] (no cAMP, 4 μg cAMP-dependent protein kinase, [γ32P]ATP, two minute incubation) is 5760 CPM.

For the substance “Promega Peptide 7: Lissamine Rhodamine-tagged Kemptide *-L-R-R-A-S-L-G (SEQ ID NO:7) ({Lissamine Rhodamine}-LRRASLG)”, the “digestion by Endoprotease Lys C” value in experiment [4] was “did not show any digestion”. In addition, in experiment [5] (setting [8]), the “kinase amount below which it could not be detected” value came out at 0.009 µg. In addition, the “kinase amount that saturated the system” value in experiment [5] (setting [8]) was “more than 0.9 μg”. Further, the “A570 -Blank” value in experiment [5] (Kinase 0.0009 μg (1:10,000)) is reported as 0.009; in experiment [5] (Kinase 0.009 μg (1:1,000)) it was 0.010; in experiment [5] (Kinase 0.09 μg (1:100)) it was 0.022; in experiment [5] (Kinase 0.9 μg (1:10)), 0.107; in experiment [5] (Kinase 4.5 μg (1:2)), 0.106; in experiment [6] (Kinase 0.05 μg (1:200)), 0.009. Also, the “A570 -Blank” value in experiment [6] (Kinase 0.10 μg (1:100)) is given as 0.021; in experiment [6] (Kinase 0.20 μg (1:50)), 0.029; in experiment [6] (Kinase 0.50 μg (1:20)), 0.130; in experiment [6] (Kinase 1.0 μg (1:10)), 0.163. The A570 in experiment [5] (Kinase 0.0009 μg (1:10,000)) is recorded as 0.106 +/- 0.013; in experiment [5] (Kinase 0.009 μg (1:1,000)) it was 0.107 +/- 0.003; in experiment [5] (Kinase 0.09 μg (1:100)), 0.119 +/- 0.002; in experiment [5] (Kinase 0.9 μg (1:10)), 0.204 +/- 0.003; in experiment [5] (Kinase 4.5 μg (1:2)) it was 0.203 +/- 0.005; in experiment [6] (Kinase 0.05 μg (1:200)), 0.024. In addition, the A570 in experiment [6] (Kinase 0.10 μg (1:100)) amounted to 0.036; in experiment [6] (Kinase 0.20 μg (1:50)), 0.044; in experiment [6] (Kinase 0.50 μg (1:20)) it was 0.145; in experiment [6] (Kinase 1.0 μg (1:10)) it was 0.178. In addition, the “correlation coefficient between kinase concentration and absorbance” value in experiment [5] (range of 0.009 to 0.9 μg kinase added) is 0.999.

“Promega Peptide 5: Lissamine Rhodamine-tagged peptide *-Q-R-R-Q-R-K-S-R-R-T-I (SEQ ID NO:5) ({Lissamine Rhodamine}-QRRQRKSRRTI)”: the “amount of protein kinase C that could be detected” value in experiment [7] came out at 3 ng. Further, the “proteolysis by B. albidum supernate” value in experiment [1] was “proteolysis of the peptide had taken place”. Further, the “proteolysis by T. aquaticus supernate” value in experiment [2] is listed as “proteolysis of the peptide had taken place”.

Take “Promega Peptide 4: Lissamine Rhodamine-tagged peptide *-R-F-A-R-K-G-S-L-R-Q-K-N-V (SEQ ID NO:4) ({Lissamine Rhodamine}-RFARKGSLRQKNV)”: in experiment [7], the “amount of protein kinase C that could be detected” value is reported as “Six hundred”.
